Laboratory results as given in article PMC6981927, “In Situ Proteolysis Condition-Induced Crystallization of the XcpVWX Complex in Different Lattices” (International Journal of Molecular Sciences, 2020).

T1: XcpX (29–313), soluble truncation of the minor pseudopilin XcpX (Pseudomonas aeruginosa PAO1, UniProt Q00518 29-313)
T1 construct: XcpX, minor pseudopilin of the type II secretion system, Pseudomonas aeruginosa PAO1, residues 29-313; Tags removed by TEV protease; residues left from the TEV site and the cloning site may remain at the N-terminus; In the crystals the complex was under in situ chymotrypsin proteolysis; some loops are missing in the model of 6UTU; source: E. coli (BL21 (DE3); results say codon plus cells), …
T1 sequence: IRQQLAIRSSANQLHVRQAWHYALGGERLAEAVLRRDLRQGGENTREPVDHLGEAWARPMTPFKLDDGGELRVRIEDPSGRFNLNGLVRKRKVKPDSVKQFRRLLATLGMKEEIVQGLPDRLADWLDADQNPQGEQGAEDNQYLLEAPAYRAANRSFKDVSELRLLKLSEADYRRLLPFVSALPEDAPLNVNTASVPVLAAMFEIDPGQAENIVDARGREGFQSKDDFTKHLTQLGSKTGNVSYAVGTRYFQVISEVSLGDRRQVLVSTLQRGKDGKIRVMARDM

B1: XcpW (28–237), soluble truncation of the minor pseudopilin XcpW (domain or fragment)
chain: RMFDSVMQTDQATRVQEQRMRELVRAMGALERDLTQAVERPVRDELGDNRGAFLSEGENDQIVEFTRGGWRNPLGQARSRLQRVRWSLSGETLERRYWLVLDRAQDSKPRVQQVLDGVTALSWRFLDKEHNWQGHWPTDEGSEEERLESLPLAVEMTLEHRHYGKLVRVWRLLDPPLKQDQPQGQPGGENGENGEGGVPQPPEGMPGAPE
notes: XcpW, minor pseudopilin of the type II secretion system, Pseudomonas aeruginosa PAO1, residues 28-237; Tags removed by TEV protease; residues left from the TEV site and the cloning site may remain at the N-terminus; In the crystals the complex was under in situ chymotrypsin proteolysis; source: E. coli (BL21 (DE3); results say codon plus cells), purified (Ni-NTA, TEV cleavage, second Ni-NTA, SEC …)
B2: XcpV (28–129), soluble truncation of the minor pseudopilin XcpV (domain or fragment)
chain: SASARSLQNASRLEDKTLAMWIADNRLNELQLEQTPPSSGRNQGELEFAGRRWEWRTQVDSTAEQDMRRVIVWVAAKPLGRERGSIEERAAARLVGFLGSQP
notes: XcpV, minor pseudopilin of the type II secretion system, Pseudomonas aeruginosa PAO1, residues 28-129; Tags removed by TEV protease; residues left from the TEV site and the cloning site may remain at the N-terminus; In the crystals the complex was under in situ chymotrypsin proteolysis; loops 59-66 and 103-113 are missing in the model of 6UTU; source: E. coli (BL21 (DE3)); results say codon plus …

Key:
[1] = biological target: T1, XcpX (29–313), soluble truncation of …; assay: SEC; three purified tag-free pseudopilins mixed at a molar ratio of 1.5:1:1 (XcpV:XcpW:XcpX), 4 °C overnight; Superdex 75, 25 mM HEPES pH 7.0, 150 mM NaCl, 1 mM CaCl2; peak fractions analysed by SDS-PAGE; conditions: both partners purified
[2] = biological target: B1; assay: as above; conditions: both partners purified

Row | Binder | stoichiometry N [1] | stoichiometry N [2]
1 | B1 | ~1 | –
2 | B2 | ~1 | ~1
